Legend:
Test in all cases: GST pull-down, quantified immunoblot
[1] = target: 4x tandem linear human ubiquitin (C-terminal His-tagged), phosphorylated in vitro by GST-TcPINK1 (UniProt P0CG48); settings: + PINK1 (4xUb pre-treated with GST-TcPINK1); parent: est. 20; read off a plot
[2] = target: 3x tandem linear human ubiquitin (C-terminal His-tagged) (UniProt P0CG48); settings: - PINK1 (non-phosphorylated 3xUb); parent: est. 16; read off a plot
[3] = target: 4x tandem linear human ubiquitin (C-terminal His-tagged) (UniProt P0CG48); settings: - PINK1 (non-phosphorylated 4xUb); parent: est. 32; read off a plot
[4] = target: 3x tandem linear human ubiquitin (C-terminal His-tagged), phosphorylated in vitro by GST-TcPINK1 (UniProt P0CG48); settings: + PINK1 (3xUb pre-treated with GST-TcPINK1); parent: est. 14; read off a plot
[5] = target: 2x tandem linear human ubiquitin (C-terminal His-tagged), phosphorylated in vitro by GST-TcPINK1 (UniProt P0CG48); settings: + PINK1 (2xUb pre-treated with GST-TcPINK1); parent: est. 7.5; read off a plot

Chain of GST-tagged mouse RABGEF1 (WT) 1-74aa, Q9JM13 A58D (Q9JM13 1-74 A58D): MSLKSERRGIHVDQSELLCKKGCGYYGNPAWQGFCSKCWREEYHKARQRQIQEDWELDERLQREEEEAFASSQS
Chain of GST-tagged mouse RABGEF1 (WT) 1-74aa, Q9JM13 Y26A (Q9JM13 1-74 Y26A): as the sequence (Q9JM13 1-74 A58D) above, with Y26A, D58A counted along it

Substance | response [1] | response [2] | response [3] | response [4] | response [5]
GST-tagged mouse RABGEF1 (WT) 1-74aa, Q9JM13 A58D | 17 % of total | 8 % of total | 24 % of total | 8 % of total | 
GST-tagged mouse RABGEF1 (WT) 1-74aa, Q9JM13 Y26A | 20 % of total | 14 % of total | 28 % of total | 13 % of total | 4 % of total
